Reference: patent US20070105096A1

Key:
[1] = molecular target: orphan G-protein coupled receptor G10d (human) (UniProt O15218); test: cell-based or functional assay
[2] = molecular target: type I angiotensin II receptor (AT1), bovine (bovine) (UniProt P25104); test: cell-based or functional assay
type I angiotensin II receptor (AT1), bovine (bovine), sequence (P25104 whole entry): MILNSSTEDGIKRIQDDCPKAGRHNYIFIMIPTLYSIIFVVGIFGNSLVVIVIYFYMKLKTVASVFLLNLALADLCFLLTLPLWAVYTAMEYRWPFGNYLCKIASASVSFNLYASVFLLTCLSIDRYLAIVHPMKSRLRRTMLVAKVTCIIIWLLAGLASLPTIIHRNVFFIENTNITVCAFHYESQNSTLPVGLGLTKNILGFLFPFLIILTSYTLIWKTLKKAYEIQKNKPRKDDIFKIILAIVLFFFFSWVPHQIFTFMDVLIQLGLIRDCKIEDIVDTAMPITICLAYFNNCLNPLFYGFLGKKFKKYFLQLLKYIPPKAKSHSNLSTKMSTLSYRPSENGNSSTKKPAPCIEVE

orphan G-protein coupled receptor G10d (human), sequence (O15218 whole entry): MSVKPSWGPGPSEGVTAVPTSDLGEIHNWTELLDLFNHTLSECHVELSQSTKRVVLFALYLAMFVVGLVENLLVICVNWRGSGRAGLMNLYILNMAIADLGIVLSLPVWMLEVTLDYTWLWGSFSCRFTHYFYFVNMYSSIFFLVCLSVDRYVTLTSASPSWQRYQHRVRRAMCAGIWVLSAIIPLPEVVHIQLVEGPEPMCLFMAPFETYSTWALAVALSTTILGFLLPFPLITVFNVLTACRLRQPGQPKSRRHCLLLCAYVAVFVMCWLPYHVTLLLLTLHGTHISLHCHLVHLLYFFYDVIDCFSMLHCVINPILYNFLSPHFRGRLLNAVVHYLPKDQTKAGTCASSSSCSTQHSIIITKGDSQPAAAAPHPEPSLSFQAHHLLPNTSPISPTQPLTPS

Question: With “α-melanocyte-stimulating hormone (α-MSH) (from UniProt P01189 138-150) (peptide)” as the substance, how does the induction ratio of the reporter (Renilla reniformis luciferase, CRE), host GBCRC6 with pAGal9-G10d, 100 µmol/L of α-MSH as printed [1] read?
Answer: 10 fold

Question: How did the firefly luciferase activity (CRE reporter), host GBCC13 with pAGal9-AT1, angiotensin II 100 nmol/L [2] turn out when “human angiotensin II (manufactured by Bachem) (from UniProt P01019 25-476) (peptide)” was run?
Answer: 85 fold

Question: How did the induction ratio of the reporter (Renilla reniformis luciferase, CRE), host GBCRC6 with pAGal9-G10d, 100 nmol/L of ACTH [1] turn out when “adrenocorticotropic hormone (ACTH) (from UniProt P01189 138-176) (peptide)” was run?
Answer: 11 fold
